From US20130053541A1, “METHODS FOR DISCOVERING MOLECULES THAT BIND TO PROTEINS” (LYNNTECH, INC., priority 2011, published 2013)

The substances below were run against T1, native human ESRRG protein (Homo sapiens, UniProt P62508) (assay: peptide microarray screening for ESRRG binding (Iteration 1 and 2)). Details: Iteration 1 primary screen.
T1 sequence (P62508 1-458): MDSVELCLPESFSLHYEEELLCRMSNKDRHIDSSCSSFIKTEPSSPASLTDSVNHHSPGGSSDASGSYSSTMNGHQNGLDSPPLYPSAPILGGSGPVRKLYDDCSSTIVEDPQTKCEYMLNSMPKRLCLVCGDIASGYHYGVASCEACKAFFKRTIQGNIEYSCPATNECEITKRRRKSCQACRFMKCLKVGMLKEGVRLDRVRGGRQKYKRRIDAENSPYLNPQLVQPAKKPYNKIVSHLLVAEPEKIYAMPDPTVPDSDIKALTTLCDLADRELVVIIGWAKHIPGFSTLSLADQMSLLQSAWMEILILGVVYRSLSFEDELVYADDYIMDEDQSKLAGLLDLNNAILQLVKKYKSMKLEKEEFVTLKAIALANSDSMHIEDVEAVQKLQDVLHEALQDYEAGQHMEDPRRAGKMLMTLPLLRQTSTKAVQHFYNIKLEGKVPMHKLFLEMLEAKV
Source text: The BLOSUM62 matrix was divided into Tiers based, with Tier 1 comprising “most conserved” (lowest penalty) and Tier 3 comprising “least conserved” (highest penalty) mutations observed in nature. Sequences for microarray production for the primary stage (Iteration 1) of screening for protein binding were created by permuting AA positions 4 and/or 5 only (i.e., core of sequence) of parent 8-mer peptides using Tier 1 and Tier 3 substitutions. This allows the systematic variation of the sequence in order to identify the most important motif within the larger candidate ligand sequence that is needed for binding the target protein. All peptides on the array were grown from the C→N terminal, with the exposed N-terminal amino acid masked by an acetyl group to prevent folding of the sequence and enable full presentation of the peptide to its target protein.
Screening was carried out typically by hybridization of the protein (1 μg/mL) against the array for 1 h at 4° C.; detection of bound protein was carried out using a fluorescently labeled anti-ESRRG mAb. (Direct labeling of ESRRG and alternative detection strategies are equally valid).
Highest binders (based on relative fluorescence signal) were selected and iteratively sequence expanded and arrayed (Iteration 2); and ESRRG binding sequences were selected as above. For iterative arrays, the core positions (AA 4 and 5) were kept unchanged while the outer amino acids (2, 3, 6, and/or 7) were permuted using Tier 3 substitutions.
Daughter candidate ligands and their new Tier 3 and/or Tier 1 based combinations were synthesized in situ on an addressable peptide microarray and screened against native human ESRRG protein in order to determine sequences that bind to this protein. Bound protein was detected by a fluorescently labeled anti-ESRRG mAb. Results are obtained in fluorescence intensity units which were used to rank the peptide ligands. Excess (100×) competing biological matrices (human serum, HSA/BSA or bacterial protein extract) were used as backgrounds to select for specific ligands to the protein. Other competing proteins can be added to background for specificity selection and directed evolution of ligands.
Iterative sequence expansion and arraying of 10 highest binding ligands to ESRRG from Iteration 1 was carried out and the new peptide sequences were synthesized on an array and screened against the protein, as described above. In this step, the central 2 amino acids (core) in peptide sequences were maintained unchanged while outlying amino acids (2, 3, 6, and 7) were permuted (using Tier 1 and Tier 3 substitutions) in a ‘cipher’ or ‘combination’ lock approach. Further affinity maturation of sequence was observed, with multifold enhancement in binding signal of Iteration 2 sequences (i.e., Granddaughters) compared to their respective parents from Iteration 1 (i.e., Daughters) on the same array.

| Substance | log2 (Sample B/Sample A) |
| --- | --- |
| Ac-AANMFLLL-NH2 (C-terminus assumed) | 5.37 |
| Ac-AIRGALMG-NH2 (C-terminus assumed) | 5.48 |
| Ac-AIRLHLMG-NH2 (C-terminus assumed) | 5.07 |
| Ac-ANNSRLLH-NH2 (C-terminus assumed) | 5.54 |
| Ac-IKQDHNNS-NH2 (C-terminus assumed) | 9.45 |
| Ac-IKQNHNNS-NH2 (C-terminus assumed) | 9.63 |
| Ac-LLHKSKSQ-NH2 (C-terminus assumed) | 4.99 |
| Ac-LLHSSKSQ-NH2 (C-terminus assumed) | 5.40 |
| Ac-NIKVNANN-NH2 (C-terminus assumed) | 7.62 |
| Ac-NSLKKHLL-NH2 (C-terminus assumed) | 10.84 |
| Ac-NSLLKHLL-NH2 (C-terminus assumed) | 7.65 |
| Ac-NSLRKHLL-NH2 (C-terminus assumed) | 5.36 |

Same assay, conditions: Iteration 1 primary screen; fluorescence intensity units

| Substance | Sample A (Bkgd) Signal | Sample B (Probe) Signal |
| --- | --- | --- |
| AANMLLLL | 25.96 | 1,191.86 |
| AANMSLLL | 16.99 | 1,217.01 |
| AANMYLLL | 64.73 | 4,011.85 |
| AANNYLLL | 31.22 | 3,436.10 |
| AANYILLL | 13.78 | 2,012.02 |
| AANYLLLL | 22.22 | 3,763.81 |
| AANYVLLL | 14.74 | 2,199.01 |
| AIRGHLMG | 18.88 | – |
| AIRVHLMG | 11.78 | – |
| ANNFLLLH | 46.43 | 1,624.73 |
| ANNILLLH | 13.51 | 1,093.06 |
| ANNIQLLH | 2.12 | – |
| ANNIWLLH | 30.52 | 1,012.72 |
| ANNLKLLH | 56.94 | 1,672.30 |
| ANNLQLLH | 47.08 | 1,537.71 |
| ANNLSLLH | 21.54 | 1,220.01 |
| ANNLWLLH | 41.92 | 1,606.54 |
| ANNSKLLH | 23.60 | 1,009.30 |
| ANNSLLLH | 14.53 | 1,321.14 |
| ANNSQLLH | 1.00 | – |

| Substance | Sample A (Bkgd) Signal | Sample B (Probe) Signal |
| --- | --- | --- |
| ANNSSLLH | 7.39 | 1,153.13 |
| ANNSWLLH | 20.06 | 1,259.63 |
| ANNVKLLH | 52.38 | 1,718.47 |
| ANNVLLLH | 65.96 | 1,997.75 |
| ANNVSLLH | 62.19 | 1,818.72 |
| Ac-AANMFLLL-NH2 (C-terminus assumed) | 42.26 | 1,752.81 |
| Ac-AIRGALMG-NH2 (C-terminus assumed) | 19.03 | 851.06 |
| Ac-AIRLHLMG-NH2 (C-terminus assumed) | 28.09 | 942.75 |
| Ac-ANNSRLLH-NH2 (C-terminus assumed) | 31.74 | 1,480.35 |
| Ac-IKQDHNNS-NH2 (C-terminus assumed) | 1.00 | 701.08 |
| Ac-IKQNHNNS-NH2 (C-terminus assumed) | 1.00 | 793.75 |
| Ac-LLHKSKSQ-NH2 (C-terminus assumed) | 30.24 | 962.22 |
| Ac-LLHSSKSQ-NH2 (C-terminus assumed) | 19.42 | 819.16 |
| Ac-NIKVNANN-NH2 (C-terminus assumed) | 3.04 | 598.87 |
| Ac-NSLKKHLL-NH2 (C-terminus assumed) | 5.04 | 9,219.14 |
| Ac-NSLLKHLL-NH2 (C-terminus assumed) | 73.81 | 14,810.16 |
| Ac-NSLRKHLL-NH2 (C-terminus assumed) | 20.79 | 856.14 |
| IKQNYNNS | 23.70 | – |
| KSLLQQLL | 88.50 | 7,385.40 |

Same assay, conditions: Iteration 2 iterative screen

| Substance | log2 (Sample B/Sample A) |
| --- | --- |
| Ac-LYLLKHHP-NH2 (C-terminus assumed) | 3.05 |

Same assay, conditions: Iteration 2 iterative screen; fluorescence intensity units

| Substance | Sample A (Bkgd) Signal | Sample B (Probe) Signal |
| --- | --- | --- |
| AFNMYLDE | 115.25 | – |
| AHNYLLEH | 115.46 | – |
| ALNFSLNW | 152.44 | – |
| Ac-LYLLKHHP-NH2 (C-terminus assumed) | 304.92 | 2,527.00 |
| DINFSLGI | 160.50 | 4,797.29 |
| DNNYLLLL | 156.87 | 2,242.02 |
| DRSYPRHT | 68.94 | – |
| EDSYPRDG | 297.83 | 5,021.94 |
| EESYPRDK | 121.27 | – |
| FFKGHFKF | 543.19 | 5,435.29 |
| FFNFSLPA | 165.50 | 1,043.90 |
| FVNFSLGI | 238.31 | – |
| FWKGHFDF | 230.42 | 1,455.83 |
| FWNMYLNP | 158.25 | – |
| FYNMYLLN | 251.75 | 1,558.62 |
| GKSYPRHR | 553.79 | 3,049.48 |
| HDNMYLNE | 81.50 | 7,243.75 |
| HFKLKQGG | 641.69 | 3,108.23 |
| HLKLKQEN | 183.65 | 1,745.92 |
| HNNFSLEP | 107.88 | – |
| HNNYLLNN | 190.35 | – |
| HNSYPRNE | 143.58 | – |
| HRSYPRRG | 805.42 | 19,001.58 |
| HRSYPRVY | 494.92 | 2,451.98 |
| HYKLKQHE | 165.10 | 1,296.65 |
| IFLLQQDN | 238.04 | 1,007.54 |
| LFKLKQDG | 277.71 | 2,776.37 |
